Results taken from PMC9717613 (Nature catalysis, 2022).

Target: the molecule itself
Experiment: crystal structure

B1: HsKYNase_66-Ct6XHis (HsKYNase_66 with a C-terminal 6X-Histidine Tag) (enzyme, human)
chain: MEPSSLELPADTVQRIAAELKCHPTDERVALHLDEEDKLRHFRECFYIPKIQDLPPVDLSLVNKDEDAIYFNGNSLGLQPKMVKTYLEEELDKWAKIAIYGWFEGDSPWIHYDESIVGLMKDIVGANEKEIVLMNTLTVNLHLLMLSFFKPTPKRYKILLEAKAFPSDHYAIESQLQLHGLNIEESMRIIKPREGEETLRIEDILEVIEKEGDSIAVILFSGIHYYTGQHFNIPAITKAGQAKGCYVGFDLAHAVGNVELYLHDWGVDFACWCGYKYLNSSPGGIAGAFIHEKHAHTIKPALVGWFGHELSTRFKMDNKLQLIPGVCGFRCSTPPILLVCILHASLEIFKQATMKALRKKSVLLTGYLEYLIKHNYGKDKAATKKPVVNIITPSHVEERGCQLTLTFNVPNKDVFQELEKRGVVCDKRNPNGIRVAPVPLYNSFHDVYKFTNLLTSILDSAETKN
modifications: PLP cofactor bound as internal aldimine
stoichiometry N: 2
